Test results taken from the supplement of paper PMC9170038.

Test system: MS2 coat protein
Experiment: apparent KD of MS2 coat protein; designed switch direction (-1 OFF switch, 1 ON switch): -1; higher = weaker reporter binding
Summary of the method: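 Designed RNA switches with common flanks were transcribed on Illumina chips by stalled E. coli RNA polymerase and titrated with SNAP-549-labelled MS2 coat protein, from 0.7 or 1.5 nM doubling to 3 µM, in Tris-HCl pH 7.5 buffer with KCl, MgCl2, BSA, DTT, tRNA and Tween-20. Steps lasted 0.8–1.5 h (lowest) to 10–20 min (highest). Titrations ran without input, with 200 uM small-molecule ligand, or with an oligonucleotide input. Normalised cluster fluorescence was curve-fitted, and apparent KD is the per-design median over clusters.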

[1] = Eterna round: R95, input ligand: FMN 200 uM
[2] = Eterna round: R95, input ligand: microRNA oligo, concentration not stated
[3] = Eterna round: R95, input ligand: none
[4] = input ligand: microRNA oligo, concentration not stated

GCGAAAGCAAACAGGUGAAACAUGAGGAUCACCCAUGUCCUCAUUUGCUCGUCUUAUAAGCUAUGCGAAAGCAUAGC [Sensor 3, v1 - 8] (puzzle: Sensor v3, turn-off variant 1)
apparent KD of MS2 coat protein [1]: 100 nM
apparent KD of MS2 coat protein [2]: 935 nM
apparent KD of MS2 coat protein [3]: 109 nM

AAUAGUUGAGUAGGAUAUGCAUCGACCGGCCGAGCAGAAGGACUCGUGAACUUGAGGAUCACCCAAGUGUCCUCGUUUGCUUGA [Mutated MS2 EX1.16] (Eterna round: R96, puzzle: Exclusion NG 1)
apparent KD of MS2 coat protein (input ligand: FMN 200 uM): 139 nM
apparent KD of MS2 coat protein [4]: 125 nM
apparent KD of MS2 coat protein (input ligand: none): 134 nM

CUUGUUUAUGUAGGAUAUGCCUGGCGUGCCUUUGCAGAAGGACAUGAGGAUCACCCAUGUAUUGCGGUCUGCGUUCAGAUCGCU [salish99_ExNG1_r4_044] (Eterna round: R96, puzzle: Exclusion NG 1)
apparent KD of MS2 coat protein (input ligand: FMN 200 uM): 41.1 nM
apparent KD of MS2 coat protein [4]: 28.8 nM
apparent KD of MS2 coat protein (input ligand: none): 36.6 nM

AGUACUAUGCGAGCUGACUUGCGUAGUGCAGCAGGUGGAACAUGAGGAUCACCCAUGUCCUCAUUUGCUCGUCUUAA [Mat - Sensor v3 - Turn-off var 2 - D5] (puzzle: Sensor v3, turn-off variant 2)
apparent KD of MS2 coat protein [1]: 27.4 nM
apparent KD of MS2 coat protein [2]: 109 nM
apparent KD of MS2 coat protein [3]: 29.8 nM

UGUACUAACACGAUAGUGUUAGUACUAUAAGCUUGUGUUACAUGAGGAUCACCCAUGUCCUCAUAAGCUCGUCUUGA [Mat - Sensor v3 - Turn-off var 2 - D93] (puzzle: Sensor v3, turn-off variant 2)
apparent KD of MS2 coat protein [1]: 32.3 nM
apparent KD of MS2 coat protein [2]: 712 nM
apparent KD of MS2 coat protein [3]: 31.2 nM

GGUUUGCGGCAGGAUAUCCAUCCGCGGUGUGGUGGAGAAGGGCUGACAUGAGGAUCACCCAUGUGCGUCCUGGU [salish99_ex6_r4_021] (Eterna round: R97, puzzle: Exclusion 6)
apparent KD of MS2 coat protein (input ligand: FMN 200 uM): 36.3 nM
apparent KD of MS2 coat protein (input ligand: none): 21.8 nM

AGUACUAACACGAAAGUGUUAGUACUAUAAGCUUGUGAUACAUGAGGAUCACCCAUGUCCUCAUAAGCUCGUCUUAU [Mat - Sensor v3 - Turn-off var 2 - D101] (Eterna round: R96, puzzle: Sensor v3, turn-off variant 2)
apparent KD of MS2 coat protein (input ligand: FMN 200 uM): 21.1 nM
apparent KD of MS2 coat protein [4]: 477 nM
apparent KD of MS2 coat protein (input ligand: none): 21.7 nM

GAGCCAACAGGAUAUACAUGAGGAUCACCCAUGUGAAUUCGCUACACAGGGAUGAACAGUAGAAGGGUUGGUAU [Eternabot (Original) Solution 49] (Eterna round: R97, puzzle: Exclusion 3)
apparent KD of MS2 coat protein (input ligand: FMN 200 uM): 165 nM
apparent KD of MS2 coat protein (input ligand: none): 229 nM

GGCACACAUGAGGAUCACCCAUGUGAGGAUAUUAGGCGAUCGUCGAUAGACGAUAGCCUGAGAAGGCACAUGCC [Mat - Exclusion 1 - Eli Mod - D12] (Eterna round: R97, puzzle: Exclusion 1)
apparent KD of MS2 coat protein (input ligand: FMN 200 uM): 76.9 nM
apparent KD of MS2 coat protein (input ligand: none): 20.6 nM

GUGAAGUAAGGAUAUACAUGAGGAUCACCCAUGUGUGGGAAGGUGAUGGGAGUAGGUAGUAGAAGGUACGAGGA [JR_Exclu3_Sub065] (puzzle: Exclusion 3)
apparent KD of MS2 coat protein [2]: 108 nM

GAAAACGCAGAGGAUAUUUCAGAUCAAAGCUGCAAAGAAGGCUGCACAUGAGGAUCACCCAUGUGGUCUUUAAA [Quesina] (puzzle: Exclusion 6)
apparent KD of MS2 coat protein [1]: 167 nM
apparent KD of MS2 coat protein [2]: 17.8 nM
apparent KD of MS2 coat protein [3]: 16.4 nM

CCGGAAAUAGAGGAUAUAGGACUCGAUAGAGUCCUAGAAGGCUAUACAUGAGGAUCACCCAUGUGUCCUACCGG [Fiskers Ex 6 - 64] (puzzle: Exclusion 6)
apparent KD of MS2 coat protein [1]: 40.7 nM
apparent KD of MS2 coat protein [2]: 13.6 nM
apparent KD of MS2 coat protein [3]: 13.4 nM

AUUGUGUGAGGAUAUUAAUAGUAAAUGAAUAGAAUUAUGAUUGAGAAGGCACAUGAGGAUCACCCAUGUUCCUU [JR_Ex4_Sub081] (Eterna round: R97, puzzle: Exclusion 4)
apparent KD of MS2 coat protein (input ligand: FMN 200 uM): 17.8 nM
apparent KD of MS2 coat protein (input ligand: none): 19.6 nM

AAAAAAUAAAAAACAAGCUACAUGAGGAUCACCCAUGUUACAAAAAUAAAAUAAAAAUAAAAUAAAAGUAAAAUGGG [Sensor V2: 75 Random] (Eterna round: R96, puzzle: Sensor v2, turn-off variant)
apparent KD of MS2 coat protein (input ligand: FMN 200 uM): 145 nM
apparent KD of MS2 coat protein [4]: 78.2 nM
apparent KD of MS2 coat protein (input ligand: none): 98.8 nM

UUGCGGCAAGGAUAUACAUGAGGAUCACCCAUGUAGUAUUUGGUGCUGGCGAGCUGGUGUAGAAGGUGCACGCA [EX3 B.3] (Eterna round: R97, puzzle: Exclusion 3)
apparent KD of MS2 coat protein (input ligand: FMN 200 uM): 21.2 nM
apparent KD of MS2 coat protein (input ligand: none): 16.1 nM

CUGAAUCGAGGAUAUACAUGAGGAUCACCCAUGUAUACUGUCUUGGUGAGAGUCCCGUGUAGAAGGCGACAGGC [EX3 B.6] (Eterna round: R97, puzzle: Exclusion 3)
apparent KD of MS2 coat protein (input ligand: FMN 200 uM): 60.1 nM
apparent KD of MS2 coat protein (input ligand: none): 35.9 nM

GUCAGCUCGUGAGGAUAUACAUCACUGCUUCGGCAGUGUAUUAAGAUCACAUGAGGAUCACCCAUGUAGAAGGUACGAGCUGAU [ENG2/2-C2] (Eterna round: R96, puzzle: Exclusion NG 2)
apparent KD of MS2 coat protein (input ligand: FMN 200 uM): 214 nM
apparent KD of MS2 coat protein [4]: 17.6 nM
apparent KD of MS2 coat protein (input ligand: none): 26.9 nM

AAAUAUCAUGUAGGAUAUGGAAGGCGAACCUAUCCAGAAGGACAUGAGGAUCACCCAUGUGCUGCGUUGUCCGUAGACAGCGCU [Ex NG1 #2] (Eterna round: R96, puzzle: Exclusion NG 1)
apparent KD of MS2 coat protein (input ligand: FMN 200 uM): 88.2 nM
apparent KD of MS2 coat protein [4]: 21.1 nM
apparent KD of MS2 coat protein (input ligand: none): 31.4 nM

GGUCUUCAAGUCAGGAUAUCGUAUAAUAGAUAUAACGAGAAGGGACAUGAGGAUCACCCAUGUCGUCUCAUCAG [Ex4 #21] (Eterna round: R97, puzzle: Brourd's mod of Exclusion 4)
apparent KD of MS2 coat protein (input ligand: FMN 200 uM): 83.9 nM
apparent KD of MS2 coat protein (input ligand: none): 27 nM

UGAAGUAGAAACCGAUCCUACAUGAGGAUCACCCAUGUAGCAAGACGUGCACGCGAAGCUCGUCAGACUACCAGAAG [salish99_TOv1_r3_002] (puzzle: Sensor v3, turn-off variant 1)
apparent KD of MS2 coat protein [1]: 170 nM
apparent KD of MS2 coat protein [2]: 167 nM
apparent KD of MS2 coat protein [3]: 366 nM

AAUUAGUAUGUGAGGAUAUUGACGGAAUGACUUGUUAAGAAGGCACAUGAGGAUCACCCAUGUGGGAAGUCACG [JR_BMEx4_Sub012] (Eterna round: R97, puzzle: Brourd's mod of Exclusion 4)
apparent KD of MS2 coat protein (input ligand: FMN 200 uM): 57.1 nM
apparent KD of MS2 coat protein (input ligand: none): 18.1 nM

UUAUUAUAUGUAGGAUAUGCAUAUUAUUAUUAUGCAGAAGGACAUGAGGAUCACCCAUGUAUGUUGUUAUUAUAUAUUAUAUAU [Title] (Eterna round: R96, puzzle: Exclusion NG 1)
apparent KD of MS2 coat protein [4]: 20.6 nM

GGAUCGAGUGUGAGGAUAUGCUGGUCCUUGGAUCAGCAGAAGGCACAUGAGGAUCACCCAUGUGAAGACGGUCC [Copy of R95 JL bmx4 3.16] (Eterna round: R97, puzzle: Brourd's mod of Exclusion 4)
apparent KD of MS2 coat protein (input ligand: FMN 200 uM): 288 nM
apparent KD of MS2 coat protein (input ligand: none): 38.6 nM

UUGCCUAAUGUUAGGAUAUGCGACGGGUGACCGUUGCAGAAGGAACAUGAGGAUCACCCAUGUUUAAUAAAAUC [JL-BMX4-4.43 ViennaUCT mod] (Eterna round: R97, puzzle: Brourd's mod of Exclusion 4)
apparent KD of MS2 coat protein (input ligand: FMN 200 uM): 69.3 nM
apparent KD of MS2 coat protein (input ligand: none): 14.9 nM

ACGGCGGCUCUAGGAUAUGACGACAUGAGGAUCACCCAUGUAGCCUUAGCCUUCACGAAAAUCGAUCAGAAGGAGAGCUCCAGG [Eternabot solution 19] (Eterna round: R96, puzzle: Exclusion NG 2)
apparent KD of MS2 coat protein (input ligand: FMN 200 uM): 13.5 nM
apparent KD of MS2 coat protein [4]: 10.9 nM
apparent KD of MS2 coat protein (input ligand: none): 17.6 nM

UAGCAGCGAGGAUAUACAGACGGGUCCAGUACGUGUCUUGGACUUGAGGAUCACCCAAGUAGAAGGCGCCACAG [salish99_ex2_r4_604] (Eterna round: R97, puzzle: Exclusion 2)
apparent KD of MS2 coat protein (input ligand: FMN 200 uM): 41.3 nM
apparent KD of MS2 coat protein (input ligand: none): 40 nM

AUUACGCAGUAGGAUAUGGGCGGUGAGCACCGUCCAGAAGGACUGACAUGAGGAUCACCCAUGUCCUCCCACAC [Eternabot (L2) Solution 42] (Eterna round: R97, puzzle: Exclusion 6)
apparent KD of MS2 coat protein (input ligand: FMN 200 uM): 497 nM
apparent KD of MS2 coat protein (input ligand: none): 55.8 nM

CCAUCGAGUGUGAGGAUAUGCUGUUCCUUGGAGCAGCAGAAGGCACAUGAGGAUCACCCAUGUGGAUACGGUGG [Mat - Exclusion 4 - JL Mod - D80] (puzzle: Brourd's mod of Exclusion 4)
apparent KD of MS2 coat protein [2]: 33.4 nM

UGCGGUAGAGGAUAUACGUAGAAAUAGAUUCAUGUAAAACUACAUGAGGAUCACCCAUGUAGAAGGCUAUCGCU [JL-ex2-4.27 Eli mod] (Eterna round: R97, puzzle: Exclusion 2)
apparent KD of MS2 coat protein (input ligand: FMN 200 uM): 265 nM
apparent KD of MS2 coat protein (input ligand: none): 25.8 nM

CCCAGUUAGGAAGGAUAUUGUACAUGAGGAUCACCCAUGUAAUAAAUGAGGAUCACGGAUGUAGACAAGAAGGUCCGGAUAGGC [Ostracism 8 - Jieux - Exclusion NG 2] (Eterna round: R96, puzzle: Exclusion NG 2)
apparent KD of MS2 coat protein (input ligand: FMN 200 uM): 104 nM
apparent KD of MS2 coat protein [4]: 41.5 nM
apparent KD of MS2 coat protein (input ligand: none): 55.5 nM

UUUAAUUUAAUUAAGAUCACAUGAGGAUCACCCAUGUAUAUAUAGGAUAUCAGCUCGUUUAGAGCUGAGAAGGAUAUAUACAUA [ExNG3/4-A2] (Eterna round: R96, puzzle: Exclusion NG 3)
apparent KD of MS2 coat protein (input ligand: FMN 200 uM): 433 nM
apparent KD of MS2 coat protein [4]: 40.1 nM
apparent KD of MS2 coat protein (input ligand: none): 58.2 nM

CCAUCGUGUGUGAGGAUAUGCUGGUCCUUGGAUCAGCAGAAGGCACAUGAGGAUCACCCAUGUGAAUACGAUGG [Mat - Exclusion 4 - JL Mod - D87] (puzzle: Brourd's mod of Exclusion 4)
apparent KD of MS2 coat protein [2]: 14.9 nM

CAUUUGUGAGGAUAUCAGGUGUGCUAGCGUACUGGUACAUCUGAGAAGGCACAUGAGGAUCACCCAUGUUCCUC [Mat - Exclusion 4 - Mod of JL - D35] (puzzle: Exclusion 4)
apparent KD of MS2 coat protein [2]: 44.1 nM
